Experimental data from patent publication US20190382486A1 (Pfizer, published 2019).

Tests used:
[1] = molecular target: T1, human CD3 epsilon subunit (CD3e), as cell surface CD3 on Jurkat cells and on naive human T cells (human, UniProt P07766 23-207); assay: FACS on Jurkat cells expressing CD3, monovalent IgG
T1 construct: On the cells CD3 epsilon is part of the whole CD3/TCR complex
Protocol: All the mutants were generated as monovalent IgG antibodies using standard transient HEK293 expression followed by purification using Protein A column. The resulting clones were tested for binding to Jurkat cells expressing CD3 using FACS and self-association potential using AC-SINS as described above in Example 7. As shown in Table 16, five molecules with improved epivax score and reduced T-cell epitopes and retained affinity to CD3 were chosen to move forward and test in diabody-Fc format. The 2B5v6 variants with improved epivax scores were compared to the parental 2B5v6.
Target sequence in this assay (P07766 23-207 limits assumed): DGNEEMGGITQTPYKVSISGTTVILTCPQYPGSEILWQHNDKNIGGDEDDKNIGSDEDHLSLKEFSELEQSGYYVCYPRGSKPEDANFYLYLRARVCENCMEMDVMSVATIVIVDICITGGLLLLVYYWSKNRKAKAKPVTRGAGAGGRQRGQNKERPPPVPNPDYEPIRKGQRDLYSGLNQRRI

[2] = molecular target: T2, CD3ed (CD3 epsilon/delta fusion protein) (human); assay: SPR, recombinant human CD3
T2 construct: Expressed in HEK293 and purified on His60 resin and by SEC; also called soluble human CD3ed antigen; hCD3ed
T2 chain: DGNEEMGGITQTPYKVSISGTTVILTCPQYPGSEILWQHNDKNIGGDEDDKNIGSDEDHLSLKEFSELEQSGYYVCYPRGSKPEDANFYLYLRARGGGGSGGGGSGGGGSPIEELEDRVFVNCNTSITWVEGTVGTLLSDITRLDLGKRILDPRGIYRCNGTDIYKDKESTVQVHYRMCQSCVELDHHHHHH

[3] = molecular target: T1, human CD3 epsilon subunit (CD3e), as …; assay: cell-based or functional assay
[4] = molecular target: T1, human CD3 epsilon subunit (CD3e), as …; assay: flow cytometry titration on naive human T cells (PE-A Geo Mean against Ab in nM); Kd printed beside the legend

| EC50 [1] [nM] | Kd [2] [nM] | Binder | In vitro Cytotoxicity [3] [nM] | other results |
| --- | --- | --- | --- | --- |
| – | 63.5 | GUCY2C-1678 bispecific antibody (bispecific antibody, Bispecific diabody-Fc; also called GUCY2c bispecific with CD3 variant 2B5-1038) chain 1: DIQLTQSPSSLSASVGDRVTITCRASESVDYYGSSLLQWYQQKPGKAPKLLIYAASKLASGVPSRFSGSGSGTDFTLTISSLQPEDFATYYCQQTRKAYTFGQGTKLEIKGGGSGGGGEVQLVESGGGLVQPGGSLRLSCAASGFTFSDYYMTWVRQAPGKGLEWVAFIRNQARGYTSDHNPSVKGRFTISRDNAKNSLYLQMNSLRAEDTAVYYCARDRPSYYVLDYWGQGTTVTVSSGCPPCPAPEAAGAPSVFLFPPKPKDTLMISRTPEVTCVVVDVSHEDPEVKFNWYVDGVEVHNAKTKPREEQYNSTYRVVSVLTVLHQDWLNGKEYKCKVSNKALPAPIEKTISKAKGQPREPQVCTLPPSREEMTKNQVSLWCLVKGFYPSDIAVEWESNGQPENNYKTTPPVLDSDGSFFLYSKLTVDKSRWQQGNVFSCSVMHEALHNHYTQKSLSLSPG chain 2: DIQMTQSPSSLSASVGDRVTITCTSDQSLFNVRSGKNYLAWYQQKPGKAPKLLIYWASDRESGVPSRFSGSGSGTDFTLTISSLQPEDFATYYCKQSYDLFTFGGGTKVEIKGGGGSGGGGEVQLVESGGGLVQPGGSLRLSCAASGFTFSSYWMHWVRQAPGKGLEWIGEIKPSNELTNVHEKFKDRFTISVDKAKNSAYLQMNSLRAEDTAVYYCTRTITTTEGYWFFDVWGQGTLVTVSSGCPPCPAPEAAGAPSVFLFPPKPKDTLMISRTPEVTCVVVDVSHEDPEVKFNWYVDGVEVHNAKTKPREEQYNSTYRVVSVLTVLHQDWLNGKEYKCKVSNKALPAPIEKTISKAKGQPREPQVYTLPPCREEMTKNQVSLSCAVKGFYPSDIAVEWESNGQPENNYKTTPPVLDSDGSFFLVSKLTVDKSRWQQGNVFSCSVMHEALHNHYTQKSLSLSPG | 0.247 | – |
| – | 78.6 | GUCY2C-1680 bispecific antibody (bispecific antibody, Bispecific diabody-Fc; also called GUCY2c bispecific with CD3 variant 2B5-1039) chain 1: DIQLTQSPSSLSASVGDRVTITCRASESVDYYGSSLLQWYQQKPGKAPKLLIYAASKLASGVPSRFSGSGSGTDFTLTISSLQPEDFATYYCQQTRKAYTFGQGTKLEIKGGGSGGGGEVQLVESGGGLVQPGGSLRLSCAASGFTFSDYYMTWVRQAPGKGLEWVAFIRNQARGYTSDHNPSVKGRFTISRDNAKNSLYLQMNSLRAEDTAVYYCARDRPSYYVLDYWGQGTTVTVSSGCPPCPAPEAAGAPSVFLFPPKPKDTLMISRTPEVTCVVVDVSHEDPEVKFNWYVDGVEVHNAKTKPREEQYNSTYRVVSVLTVLHQDWLNGKEYKCKVSNKALPAPIEKTISKAKGQPREPQVCTLPPSREEMTKNQVSLWCLVKGFYPSDIAVEWESNGQPENNYKTTPPVLDSDGSFFLYSKLTVDKSRWQQGNVFSCSVMHEALHNHYTQKSLSLSPG chain 2: DIQMTQSPSSLSASVGDRVTITCTSSESLFNVRSGKNYLAWYQQKPGKAPKLLIYWASDRESGVPSRFSGSGSGTDFTLTISSLQPEDFATYYCKQSYDLFTFGGGTKVEIKGGGGSGGGGEVQLVESGGGLVQPGGSLRLSCAASGFTFSSYWMHWVRQAPGKGLEWIGEIKPSNELTNVHEKFKDRFTISVDKAKNSAYLQMNSLRAEDTAVYYCTRTITTTEGYWFFDVWGQGTLVTVSSGCPPCPAPEAAGAPSVFLFPPKPKDTLMISRTPEVTCVVVDVSHEDPEVKFNWYVDGVEVHNAKTKPREEQYNSTYRVVSVLTVLHQDWLNGKEYKCKVSNKALPAPIEKTISKAKGQPREPQVYTLPPCREEMTKNQVSLSCAVKGFYPSDIAVEWESNGQPENNYKTTPPVLDSDGSFFLVSKLTVDKSRWQQGNVFSCSVMHEALHNHYTQKSLSLSPG | 0.385 | – |

More lines, now with the values behind:

| Binder | EC50 [1] [nM] | Kd [2] [nM] | In vitro Cytotoxicity [3] [nM] | other results |
| --- | --- | --- | --- | --- |
| 2B5v6-0517 (antibody, V domains shown, Tested as a monovalent IgG; also called 2B5-0517) VH: EVQLVESGGGLVQPGGSLRLSCAASGFTFSDYYMTWVRQAPGKGLEWVAFIRNQARGYTSDHQPSVKGRFTISRDNAKNSLYLQMNSLRAEDTAVYYCARDRPSYYVLDYWGQGTTVTVSS VL: DIQMTQSPSSLSASVGDRVTITCTSSQSLFNVRSGKNYLAWYQQKPGKAPKLLIYWASTRESGVPSRFSGSGSGTDFTLTISSLQPEDFATYYCKQSYDLFTFGGGTKVEIK | 9.9 | – | – | – |
| 2B5v6-0522 (antibody, V domains shown, Tested as a monovalent IgG; also called 2B5-0522) VH: EVQLVESGGGLVQPGGSLRLSCAASGFTFSDYYMTWVRQAPGKGLEWVAFIRNQARGYTSDHQPSVKGRFTISRDNAKNSLYLQMNSLRAEDTAVYYCARDRPSYYVLDYWGQGTTVTVSS VL: DIQMTQSPSSLSASVGDRVTITCTSSQSLFNVRSQKNYLAWYQQKPGKAPKLLIYWASDRESGVPSRFSGSGSGTDFTLTISSLQPEDFATYYCKQSYDLFTFGGGTKVEIK | 8.6 | – | – | – |
| 2B5v6-0533 (antibody, V domains shown, Tested as a monovalent IgG; also called 2B5-0533) VH: EVQLVESGGGLVQPGGSLRLSCAASGFTFSDYYMTWVRQAPGKGLEWVAFIRNQARGYTSDHNPSVKGRFTISRDNAKNSLYLQMNSLRAEDTAVYYCARDRPSYYVLDYWGQGTTVTVSS VL: DIQMTQSPSSLSASVGDRVTITCTSSQSLFNVRSGKNYLAWYQQKPGKAPKLLIYWASTRESGVPSRFSGSGSGTDFTLTISSLQPEDFATYYCKQSYDLFTFGGGTKVEIK | 6.1 | – | – | – |
| 2B5v6-0538 (antibody, V domains shown, Tested as a monovalent IgG; also called 2B5-0538) VH: EVQLVESGGGLVQPGGSLRLSCAASGFTFSDYYMTWVRQAPGKGLEWVAFIRNQARGYTSDHNPSVKGRFTISRDNAKNSLYLQMNSLRAEDTAVYYCARDRPSYYVLDYWGQGTTVTVSS VL: DIQMTQSPSSLSASVGDRVTITCTSSQSLFNVRSQKNYLAWYQQKPGKAPKLLIYWASDRESGVPSRFSGSGSGTDFTLTISSLQPEDFATYYCKQSYDLFTFGGGTKVEIK | 9.2 | – | – | – |
| GUCY2C-1679 bispecific antibody (bispecific antibody, Bispecific diabody-Fc; also called GUCY2c bispecific with CD3 variant 2B5-1040) chain 1: DIQLTQSPSSLSASVGDRVTITCRASESVDYYGSSLLQWYQQKPGKAPKLLIYAASKLASGVPSRFSGSGSGTDFTLTISSLQPEDFATYYCQQTRKAYTFGQGTKLEIKGGGSGGGGEVQLVESGGGLVQPGGSLRLSCAASGFTFSDYYMTWVRQAPGKGLEWVAFIRNQARGYTSDHNPSVKGRFTISRDNAKNSLYLQMNSLRAEDTAVYYCARDRPSYYVLDYWGQGTTVTVSSGCPPCPAPEAAGAPSVFLFPPKPKDTLMISRTPEVTCVVVDVSHEDPEVKFNWYVDGVEVHNAKTKPREEQYNSTYRVVSVLTVLHQDWLNGKEYKCKVSNKALPAPIEKTISKAKGQPREPQVCTLPPSREEMTKNQVSLWCLVKGFYPSDIAVEWESNGQPENNYKTTPPVLDSDGSFFLYSKLTVDKSRWQQGNVFSCSVMHEALHNHYTQKSLSLSPG chain 2: DIQMTQSPSSLSASVGDRVTITCTSSQSLFNVRSGKNYLAWYQQKPGKAPKLLIYWASDRESGVPSRFSGSGSGTDFTLTISSLQPEDFATYYCKQSYDLFTFGGGTKVEIKGGGGSGGGGEVQLVESGGGLVQPGGSLRLSCAASGFTFSSYWMHWVRQAPGKGLEWIGEIKPSNELTNVHEKFKDRFTISVDKAKNSAYLQMNSLRAEDTAVYYCTRTITTTEGYWFFDVWGQGTLVTVSSGCPPCPAPEAAGAPSVFLFPPKPKDTLMISRTPEVTCVVVDVSHEDPEVKFNWYVDGVEVHNAKTKPREEQYNSTYRVVSVLTVLHQDWLNGKEYKCKVSNKALPAPIEKTISKAKGQPREPQVYTLPPCREEMTKNQVSLSCAVKGFYPSDIAVEWESNGQPENNYKTTPPVLDSDGSFFLVSKLTVDKSRWQQGNVFSCSVMHEALHNHYTQKSLSLSPG | – | 72 | 0.194 | – |
| GUCY2c-H2B4 bispecific antibody (bispecific antibody, human IgG1, Bispecific diabody-Fc (knob-in-hole, effector null human IgG1 Fc)) chain 1: DIQLTQSPSSLSASVGDRVTITCRASESVDYYGTSLMQWYQQKPGKPPKLLIYAASNVESGVPSRFSGSGSGTDFTLTISSLQPEDFATYYCQQTRKVYTFGQGTKLEIKGGGSGGGGEVQLVESGGGLVQPGGSLRLSCAASGFTFSDYYMTWVRQAPGKGLEWVAFIRNRARGYTSDHNPSVKGRFTISRDNAKNSLYLQMNSLRAEDTAVYYCARDRPSYYVLDYWGQGTTVTVSSGCPPCPAPEAAGAPSVFLFPPKPKDTLMISRTPEVTCVVVDVSHEDPEVKFNWYVDGVEVHNAKTKPREEQYNSTYRVVSVLTVLHQDWLNGKEYKCKVSNKALPAPIEKTISKAKGQPREPQVCTLPPSREEMTKNQVSLWCLVKGFYPSDIAVEWESNGQPENNYKTTPPVLDSDGSFFLYSKLTVDKSRWQQGNVFSCSVMHEALHNHYTQKSLSLSPG chain 2: DIVMTQSPDSLAVSLGERATINCKSSQSLFNVRSRKNYLAWYQQKPGQPPKLLISWASTRESGVPDRFSGSGSGTDFTLTISSLQAEDVAVYYCKQSYDLFTFGSGTKLEIKGGGSGGGGEVQLVESGGGLVQPGGSLRLSCAASGYTFTSYWMHWVRQAPGKGLEWIGEIKPSNGLTNYIEKFKNRFTISVDKAKNSAYLQMNSLRAEDTAVYYCTRTITTTEGYWFFDVWGQGTLVTVSSGCPPCPAPEAAGAPSVFLFPPKPKDTLMISRTPEVTCVVVDVSHEDPEVKFNWYVDGVEVHNAKTKPREEQYNSTYRVVSVLTVLHQDWLNGKEYKCKVSNKALPAPIEKTISKAKGQPREPQVYTLPPCREEMTKNQVSLSCAVKGFYPSDIAVEWESNGQPENNYKTTPPVLDSDGSFFLVSKLTVDKSRWQQGNVFSCSVMHEALHNHYTQKSLSLSPG | – | – | – | Kd [4]: 8.18 nM |
